Reference: PMC2532728 (Nucleic Acids Research, 2008)

Molecular target: the molecule itself
Test: SEC

B1: recombinant ZmWHY1 (full-length mature ZmWHY1, lacking the transit peptide) (natural protein)
chain: ASSRKAAAVPACPVASPRHSDYFDPRAPPPPRGDGGYGRPPNGAQDGRVFTSYSIYKGKAALSFDPRPPLFVPLDSGAYKVAKEGFVLLQFAPAVATRQYDWTRKQVFSLSVWEIGTLLTLGPTDSCEFFHDPFKGRSEEGKVRKVLKIEPTPDGNGRFFNLSVQNRLINVDESIYIPITKGEFAVIVSTFNYIIPHLMGWSTFVSSIKPEESRPYSRPQSTSEYEWRR
stoichiometry N: 4
